Literature values as cited in paper PMC8746970, “Determination of the Peptide AWRK6 in Rat Plasma by Liquid Chromatography-Tandem Mass Spectrometry (LC-MS/MS) and Its Application to Pharmacokinetics” (Molecules, 2021).

Conditions: in vivo; cited from earlier work

In the case of glucagon-like peptide-1 [GLP-1], the elimination half-life is listed as ~ 2 min.
